This note sets out measurements from the supplement of paper PMC11502859.
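Also: lentiviral eGFP-IRES-mCherry reporter pool sorted by FACS 96 h post-transduction, gated on mCherry-high cells, Illumina read counts normalized per million, median across four biological replicates.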

The test system of the data set is HEK293T. Nature of the data set: median enrichment of reporter reads in eGFP-reduced (low/intermediate) vs eGFP-high sorted cells (eGFP-extension fusion abundance) (ratio); higher = stronger loss of eGFP-fusion protein abundance (more destabilising extension).
For the substance “SMALVALEWDPALTSPRANLGGAEGALGHRKQGKKGRSCGEMTLIFDCYPNLDL [NDRG2]”, the median enrichment came to 7.41. Consider SMFESHASLWKQYAM [STAT5A], for which the median enrichment stood at 0.883. As for SMKCLS [FANCI], the figure is 0.846; as for SML [CTHRC1], 3.13. Then SMLIP [ZMYND15], with 0.546; and “SMLLPGLQKLHGHSSVIGLSLITKITAQDHLPEKHPLA [PLCB1]”, with 19.1. As for SMSSDWRIRKIYGPTFDAIF [ZCCHC4], the median enrichment is 8.58.

As to SNGSI [PHF20L1], the median enrichment turned out to be 0.369. Regarding “SNIRFVIRNTLCLLWSCARWPQMDYRRLQRTRQMEH [BCL2L14]”, the median enrichment turned out to be 16.6. Then “SNIWLRCHWLRPTRSSFGWCRDHMHIIPGINTELFVNIAAPVF [LRRC6]”, with 12.4.

For the substance SNIYLK [TEX12], the median enrichment was determined as 0.685.

As to SNLSPRRPEVNRHLGRGRACV [NAXD], the median enrichment stood at 1.3. As for SNNQQYSRSNQHHHVIMVLWHICNIKILN [ACOX2], the figure is 5.11. Then SNQFLGLTAM [BTN2A1], with 0.367; and SNRIEQNRIE [PCSK5], with 0.616; and “SNSLRLAAPLGFLPCRTCLEVLPGGGGRGRLDLLS [AQP6]”, with 3.45.

Turning to SNTAFNWELETH [PREPL], the median enrichment turned out to be 0.178. As for SNVIPLKRKMNNTLN [HRG], the figure is 0.435; as for SNWGAFSPEQRGPRHAVERLHLPPFPGQQD [COX14], 0.854.

With “SPAPHHPQEHSTHHRQPLETSYMSLGAEREVPSPCRTRSCMCLTQVWTGGHLGAGQGHPSLHIT [RABEPK]”, the median enrichment amounted to 7.59. In the case of SPARRPSQRVTRPRGRTDSSDSPQ [EPS8L1], the median enrichment was 0.338.

Turning to “SPELTAQSVDRASVRRHRERPGGSLSMDSQTAGEHLGQPPEGPLLDPRENLLALAVILE [ICOSLG]”, the median enrichment amounted to 2.2. As for “SPERSQDPSRQHQLTDALVVPPSSPDCARSAVPSSGHLSSLWVPPHPSPC [RBP5]”, the figure is 3.81; as for SPF [SDHD], 0.337. Then SPGEKL [ZNF322], with 0.169; and “SPHPAPPPPRPTRRPPDSSPGASSATPSLHPWGPSPPACTEQGLGVSWEA [ITGB4]”, with 0.621. As for SPIQKFFLILFHLPISC [TRIO], the figure is 7.34; as for SPLL [PIK3C2G], 0.449. With SPPGPSPGSGTLVPNPERSALLP [VPS35L], the median enrichment is 0.894. As for “SPQDQGKEDGRTGAKLVGGRGGGGRDDRPWMCPQGPRSEVSTVLPARAPVPPLAATPSPIISFAPRLLRGAPVLAPAPTSAPD [FOXP3]”, the figure is 1.18; as for SPQGRAATRRDMPGRGQDKMQTFFFF [APOL1], 1.16; as for SPRSWILQCINKRSQAGFISETIN [SGCD], 39.2. Take SPSASSRKNKKSRTWQVFSICCKYVY [FBXL13]: the median enrichment was 8.34. As for “SPSDYIFNTTPPTPSWVRVSPVCPRPIKSTCHC [GPS2]”, the figure is 5.9; as for SPWGGGKG [C6orf47], 1.46. Regarding “SPWSLVPGARASPPFHQPHRPLRGWSPLPGHGGRIPLGWSRLEKLLCQVCSLSAIVTSLPRGGDHITKRNSPFSKG [TCF21]”, the median enrichment was 3.11.

For “SPYPVPRCTNRWGPAPFLPGPHGPLSQEPRPLTSCPLEMVQHSGIYHPHLGPLQPPIKG [MYH14]”, the median enrichment amounted to 5.6. As for SPYRKAGRL [BCKDHB], the figure is 19.5; as for SQAGMSPGSLARVGPQ [TXN2], 0.38; as for SQDLVGGTGNWGWEGGNKDIWPS [RNF25], 1.76. As for SQESRASLPRIAFIPKFAWK [CMBL], the figure is 2.33; as for SQFNLKFLISPTTIY [TSEN2], 8.83. Then “SQGGTTQAPWAPRERGGIRAGQPPGCRCQEQSQAQVAPAACPVPFPKAPLHIEGRKREFRQLHSPFTPNPVFYSPEKRRESHE [STARD8]”, with 1.09; and “SQKHVHFGKQACILPVQYLHSTDGTVWRSTFSYFCESIHVGPVSRICTFVPSTVTANLSV [ARHGEF3]”, with 10.6. As for SQL [AMBN], the median enrichment was 0.898.

On to “SQPSPPSPGAAWGGKSCSLRRAQLAGAVPGHGRFPVTHSLRKPGVIGHLAGQRSWGWF [CLCN6]”, for which the median enrichment was 3.27. As for “SQREENILVLFFFQKKRKIKEIYPLLPLHLSQ [SLITRK3]”, the figure is 40.1. As for SQSG [PARD6A], the figure is 1.41.

“SRATGPQQCEGSLAAHPAAGAQPLPGMRLSADGETATQSFGLCVCVCVCVCVCAHPRVPVCVRILPPGAEVPWVSPLLCNGLL [FGFR3]”: the median enrichment worked out at 6.49. Then “SRDLDLGGVVRSSGRVPPGSPGEYMSPALGGVCYWPPTFLPRWTVLL [OXCT2]”, with 3.71.

As for SREDVKCLSVNCSAVSKQSSNLQY [RIT1], the median enrichment stood at 0.34. As for SREHENGSMTLPDTDAT [TP53], the figure is 0.734. Then SRETVGG [JUN], with 3.4; and SRFCHVNVSLSGLQLRRKRRKT [SMIM11A], with 5.41; and SRGSHAPPPPCHSLGPHLPLP [SDC1], with 0.282. As for “SRHIQVSFHHFIYKGDQCHRRVPEEMRSQGLS [MPV17L]”, the figure is 4.12; as for “SRKFLRCCHLLEMRFVLCLNGLFFKKTKNQMKEHSWGFLFVCVCMCKLMSNCICRSVIVLYCVNYFHCGYFSR [U2SURP]”, 5.89.

SRL [ICAM4]: the median enrichment was found to be 0.718. As for SRMGLSL [APOBEC3G], the figure is 0.634; as for SRNMSSQGIETALNSLTSRL [PCLO], 3.6; as for SRPEVQATLASGTPPRL [RTP5], 0.536. Then SRPHTPALTQLLLGT [GRM2], with 5.49; and SRPWSESAPVGILPPPCWPPFSPQPLR [PGAP3], with 14.1; and SRR [TMEM52], with 0.803. As for “SRRRLGLCSQGLWLMMIDAPFSHALSSHLASAGQNPSPDVCNLCLEYLGVVEEQIIPSKHQALGFLEQAESQ [USP39]”, the figure is 3.94.

Turning to SRSRDDALFSAIYPKLFQI [PCDHB5], the median enrichment amounted to 2.76. As for SRVSGKKHSCMSICSWNQFL [STYK1], the figure is 11; as for SRY [IL32], 0.749.

For “SSAYLGLPKCWDYRREPNAQPRGVVFRDISESEGETQD [APOC1]”, the median enrichment worked out at 1.19.

With “SSCCHQLALWPRARCLPFMFPHLQSELVVPDDLRSHDLLTCPMILYFVGRSIKQLLLLLCANHSCNFCSAYLPLFEKHAKGSF [ADAMTSL1]”, the median enrichment was found to be 4.11. As for “SSFIGLNTVCFYQSGHWHCLLFYNHVDTSISKENLSTR [RARS]”, the figure is 8.65. Then SSKEVILFCLLIIM [CHMP2B], with 6.82. As for SSLPWAG [TMEM266], the figure is 5.32; as for “SSMMHGDFHFHIFPFFCFCFSRNGGNPVYSMPVLSYSSLLLYILLLYQKN [HIVEP2]”, 33.7.

Turning to SSNLF [ADPRM], the median enrichment was found to be 0.584. Turning to SSS [Ser03], the median enrichment was 0.352.

In the case of SSSAC [BPTF], the median enrichment stood at 0.596.

Take SSSS [Ser04]: the median enrichment stood at 0.471. As for SSSSLFLGNSLLFLPHGRCK [MAX], the figure is 4.93; as for SSSSS [Ser05], 0.298. Consider SSSSSS [Ser06], for which the median enrichment stood at 0.35. As to SSSSSSS [Ser07], the median enrichment was found to be 0.279. Then SSSSSSSS [Ser08], with 0.512; and SSSSSSSSS [Ser09], with 0.295; and SSSSSSSSSS [Ser10], with 0.553.

In the case of “STARIKNMFPCLSDTSLLDEARKIYMKILKIHIADFMEWTSCISTEKQQHNNTKILGTLK [CDKN1B]”, the median enrichment was found to be 38.1. For the substance STFKAFVK [GATA1], the median enrichment amounted to 0.381. As for “STFLHTQPLLYSTSCPGASHTPELICIILTIFSLLSPFFLFERPSLISKM [TRIM5]”, the figure is 16.6; as for STIEICSEM [PCDH11Y], 0.758. As for STL [PGRMC2], the figure is 0.374; as for STRRPSPQKP [ERBB2], 0.591. As for STSAHILESYYS [ACADL], the figure is 0.545.

“STSHAYQVAELGPLGQGAQATSSFVVTKQGSPFPFLLPYFVQRTRVIYIYICICLYPSPHLSDSALGTQLWAARGAVPCGSSC [SCAMP5]”: the median enrichment is 5.87. Then “STSPAPLRTPPRLDGWAHASHWGPGSRRWAPTLGPRGAANHTGLRPSYPAPSPSTSTFTSPPFHFFLYVFFLLETDSIHIEYN [JUNB]”, with 4.9. As for STVKEGVFVWTR [DSC1], the figure is 2.35; as for SVAGGVTARSPDFTSFGPVLL [UTP14A], 0.633; as for SVAHSGKGVLCEHVEA [GATC], 0.756. Then “SVAMVKVSVAAAAMASRRRCWDCFALEPASGCPLQWLCYCMDCILDFMCMSQ [DYNLL2]”, with 11; and SVCAGDQINRLGCAK [NOSIP], with 1.17. On to “SVDTPAPVGMDGPDFMASGTWAQRGACGRGWENKVQGRDQTAASLYMPS [ITIH3]”, for which the median enrichment was determined as 32.4.

Consider “SVFGKQQRASPLPGGLPCRFWASFPCLSLFRCAFHL [MAP2K1]”, for which the median enrichment amounted to 12.4. As for “SVGEWAGMCILLPNSSIQDCAHIRSTRTSSHQHKNINRNAALSTV [WFDC10A]”, the figure is 5.12.

Regarding “SVGQATPPSSSCLRRSHSIHWNRSWVSLCSCLSFPRDPTPLWGSGTLHCTGSLHTGRGTCAPTSETCRSPQLTCPTGAQHCTQ [MAP3K11]”, the median enrichment worked out at 5.17. Then “SVGSPSKPRPLKPPLAAPRSSHYLCPEGGKSFPAHPPR [BCL7C]”, with 1.39.

Take SVGTAQWRRGYSPG [HTR3A]: the median enrichment came out at 28.
